Data on one molecule can be found in PMC6197226, “ZZ-dependent regulation of p62/SQSTM1 in autophagy” (Nature Communications, 2018).

For the experiment, the target named is T1, p62 ZZ domain (aa 115-190) (human, UniProt Q13501 115-190).
T1 construct: p62/SQSTM1 ZZ domain, human, aa 115-190; uniformly 15N-labeled for NMR; unlabeled for MST; also called p62_(ZZ (115-190)); source: E. coli BL21 (DE3) RIL, purified (glutathione Sepharose, size exclusion)
Put plainly: MST; displacement assay: unlabeled peptide added to a preformed complex of 40 uM ZZ (aa 115-190) and 80 nM FAM-labeled peptide; Ki from IC50, called Kd in the text; 10 mM HEPES pH 7.4, 150 mM NaCl, 1 mM TCEP; triplicates. As to conditions: both partners purified.

B1: K100EKKECRRDHR110 (p62_(100-110)) peptide (peptide)
peptide: KEKKECRRDHR
notes: p62/SQSTM1 regulatory linker between PB1 and ZZ, aa 100-110; also called RL peptide; RL; source: synthetic peptide (SynPeptide or KE BioChem)
Turning to B1, binding was put at a Kd of 320 µM.
